Assay [1] concerns the target T1, SARS-CoV S trimer (ectodomain) (SARS-CoV, UniProt P59594 14-1195). The assay can be described thus: SPR.
The target in assay [2] is T1, SARS-CoV S trimer (ectodomain). The assay can be described thus: SPR. The source holds these as a separate data set.

B1: COVA1-16 (antibody, V domains shown)
VH: QVQLVQSGAEVKKPGASVKVSCKASGYTFTSYYMHWVRQAPGQGLEWMGIINSSGGSTSYAQKFQGRVTMTRDTSTSTVYMELSSLRSEDTAVYYCARPPRNYYDRSGYYQRAEYFQHWGQGTLVTVSS
VL: DIQLTQSPSSLSASVGDRVTITCQASQDISNYLNWYQQRPGKAPKLLIYDASNLETGVPSRFSGSGSGTDFTFTISSLQPEDIATYYCQQYDNPPLTFGGGTKLEIK
In assay [1], B1 returned a koff of 0.0032 s⁻¹. In assay [2], the affinity, expressed as Kd, was 19.5 nM.

In general, koff refers to a measure of how fast the partners let go of each other. A high value points to a short-lived complex. By Kd is commonly meant the equilibrium constant for the complex coming apart. A lower Kd goes with higher affinity.

(Values after publication PMC9017343 (2022).)
